The chains are these.
B1: humanized anti-CD40 antibody 9E6-L2H1 (antibody, human IgG1, V domains shown)
VH: EVQLQESGPGLVKPSDTLSLTCTVSGFSLSSYDMSWIRQPPGKGLEWIGAIGGAGGTYYASWAKSRVTISVDTSLNQVSLKLSSVTAADTAVYYCARGWTRLDLWGQGTLVTVSS
VL: DIQLTQSPSFLSASVGDRVTITCQASEDISSNLAWYQQKPGKPPKLLIFPASNLASGVPSRFSGSGSGTEFTLTISSLQPEDFATYYCQGGYWTSTSNFGSGFGGGTKVEIK
B2: humanized anti-CD40 antibody 2F12-L2H1 (antibody, human IgG1, V domains shown)
VH: EVTLKESGPVLVKPTETLTLTCTVSGFSLSSYGVSWIRQPPGKALEWLAGIGSDGSAYYASWAKSRLTISRDTNLKQVVLTMTNMDPVDTATYYCARGGITVYAMWGQGTLVTVSS
VL: AFQLTQSPSSLSASVGDRVTITCQASQSISQGLAWYQQKPGKPPKLLIVGASNLASGVPSRFSGSGSGTDFTLTISSLQPEDFATYYCQSYFSSSSTVFGGGTKVEIK
B3: humanized anti-CD40 antibody 2F12-L1H2 (antibody, human IgG1, V domains shown)
VH: EVTVKESGPVLVKPTETLTLTCTVSGFSLSSYGVSWIRQPPGKALEWLGGIGSDGSAYYASWAKSRLTISRDTNLKQVVLTMTNMDPVDTATYYCARGGITVYAMWGQGTLVTVSS
VL: AFQLTQSPSSLSASVGDRVTITCQASQSISNVLAWYQQKPGKPPKLLIVGASNLASGVPSRFSGSGSGTDFTLTISSLQPEDFATYYCQSYFSSSSTVFGGGTKVEIK
B4: humanized anti-CD40 antibody 2F12-L3H2 (antibody, human IgG1, V domains shown)
VH: EVTVKESGPVLVKPTETLTLTCTVSGFSLSSYGVSWIRQPPGKALEWLGGIGSDGSAYYASWAKSRLTISRDTNLKQVVLTMTNMDPVDTATYYCARGGITVYAMWGQGTLVTVSS
VL: AFQLTQSPSSLSASVGDRVTITCQASQSISSGLAWYQQKPGKPPKLLIVGASNLASGVPSRFSGSGSGTDFTLTISSLQPEDFATYYCQSYFSSSSTVFGGGTKVEIK
B5: humanized anti-CD40 antibody 2F12-L3H1 (antibody, human IgG1, V domains shown)
VH: EVTLKESGPVLVKPTETLTLTCTVSGFSLSSYGVSWIRQPPGKALEWLAGIGSDGSAYYASWAKSRLTISRDTNLKQVVLTMTNMDPVDTATYYCARGGITVYAMWGQGTLVTVSS
VL: AFQLTQSPSSLSASVGDRVTITCQASQSISSGLAWYQQKPGKPPKLLIVGASNLASGVPSRFSGSGSGTDFTLTISSLQPEDFATYYCQSYFSSSSTVFGGGTKVEIK
B6: humanized anti-CD40 antibody 2F12-L4H1 (antibody, human IgG1, V domains shown)
VH: EVTLKESGPVLVKPTETLTLTCTVSGFSLSSYGVSWIRQPPGKALEWLAGIGSDGSAYYASWAKSRLTISRDTNLKQVVLTMTNMDPVDTATYYCARGGITVYAMWGQGTLVTVSS
VL: AFQLTQSPSSLSASVGDRVTITCQASQSISTGLAWYQQKPGKPPKLLIVGASNLASGVPSRFSGSGSGTDFTLTISSLQPEDFATYYCQSYFSSSSTVFGGGTKVEIK
B7: humanized anti-CD40 antibody 2F12-L2H2 (antibody, human IgG1, V domains shown)
VH: EVTVKESGPVLVKPTETLTLTCTVSGFSLSSYGVSWIRQPPGKALEWLGGIGSDGSAYYASWAKSRLTISRDTNLKQVVLTMTNMDPVDTATYYCARGGITVYAMWGQGTLVTVSS
VL: AFQLTQSPSSLSASVGDRVTITCQASQSISQGLAWYQQKPGKPPKLLIVGASNLASGVPSRFSGSGSGTDFTLTISSLQPEDFATYYCQSYFSSSSTVFGGGTKVEIK
B8: humanized anti-CD40 antibody 2F12-L1H1 (antibody, human IgG1, V domains shown)
VH: EVTLKESGPVLVKPTETLTLTCTVSGFSLSSYGVSWIRQPPGKALEWLAGIGSDGSAYYASWAKSRLTISRDTNLKQVVLTMTNMDPVDTATYYCARGGITVYAMWGQGTLVTVSS
VL: AFQLTQSPSSLSASVGDRVTITCQASQSISNVLAWYQQKPGKPPKLLIVGASNLASGVPSRFSGSGSGTDFTLTISSLQPEDFATYYCQSYFSSSSTVFGGGTKVEIK

For this assay, the target named is T1, human CD40 on the cell surface (human, UniProt P25942 21-277).
T1 construct: whole, on cells; also called Raji cell surface human CD40; human CD40 on HEK-Blue CD40L cells
T1 sequence (P25942 21-277): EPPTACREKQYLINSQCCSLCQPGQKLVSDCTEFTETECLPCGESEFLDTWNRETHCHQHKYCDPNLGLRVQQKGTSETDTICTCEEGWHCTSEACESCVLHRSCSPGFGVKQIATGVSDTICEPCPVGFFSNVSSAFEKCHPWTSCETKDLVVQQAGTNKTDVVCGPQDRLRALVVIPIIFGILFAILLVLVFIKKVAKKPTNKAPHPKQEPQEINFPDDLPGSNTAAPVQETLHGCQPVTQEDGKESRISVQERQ
The assay can be described thus: flow cytometry on Raji cells, Alexa Fluor 488 anti-human IgG (H+L) detection. The method, then: Raji cells were plated at 1.5E5/well, and various concentrations of CD40 antagonistic antibodies were added. The plate was incubated at 4° C. for 1 h. After two washes with FACS buffer (PBS+2% FBS), a secondary antibody (Alexa Flour488 conjugated anti-human IgG (H+L) antibody) was added, and the plate was incubated at 4° C. for 0.5 h.
After two washes with FACS buffer, the fluorescence intensity on the cell surface was measured by flow cytometry (BD FACS Celesta).
In general terms: Flow cytometry measures light scatter and fluorescence of single cells or particles in a stream.
The EC50 is the concentration giving half of the maximal effect. A low value points to higher potency in that assay. B1 displayed an EC50 of 1.99 nM.

For B2, the EC50 stood at 0.516 nM.

In the case of B3, the EC50 was determined as 0.469 nM.

B4 returned an EC50 of 0.762 nM.

Molecule B5 came in with an EC50 of 0.456 nM.

Molecule B6 came in with an EC50 of 0.508 nM.

As for B7, the EC50 came to 0.516 nM.

As for B8, the EC50 came to 0.549 nM.

The values above are taken from patent US20250340661A1 (JIANGSU HENGRUI PHARMACEUTICALS, published 2025).
